We go through twelve molecules from patent publication US20240182551A1 (published 2024).

To fix the notation:
T1: HCoV-HKU1 recombinant soluble S ectodomain protein (prefusion-stabilized trimer) (HCoV-HKU1)
T1 chain: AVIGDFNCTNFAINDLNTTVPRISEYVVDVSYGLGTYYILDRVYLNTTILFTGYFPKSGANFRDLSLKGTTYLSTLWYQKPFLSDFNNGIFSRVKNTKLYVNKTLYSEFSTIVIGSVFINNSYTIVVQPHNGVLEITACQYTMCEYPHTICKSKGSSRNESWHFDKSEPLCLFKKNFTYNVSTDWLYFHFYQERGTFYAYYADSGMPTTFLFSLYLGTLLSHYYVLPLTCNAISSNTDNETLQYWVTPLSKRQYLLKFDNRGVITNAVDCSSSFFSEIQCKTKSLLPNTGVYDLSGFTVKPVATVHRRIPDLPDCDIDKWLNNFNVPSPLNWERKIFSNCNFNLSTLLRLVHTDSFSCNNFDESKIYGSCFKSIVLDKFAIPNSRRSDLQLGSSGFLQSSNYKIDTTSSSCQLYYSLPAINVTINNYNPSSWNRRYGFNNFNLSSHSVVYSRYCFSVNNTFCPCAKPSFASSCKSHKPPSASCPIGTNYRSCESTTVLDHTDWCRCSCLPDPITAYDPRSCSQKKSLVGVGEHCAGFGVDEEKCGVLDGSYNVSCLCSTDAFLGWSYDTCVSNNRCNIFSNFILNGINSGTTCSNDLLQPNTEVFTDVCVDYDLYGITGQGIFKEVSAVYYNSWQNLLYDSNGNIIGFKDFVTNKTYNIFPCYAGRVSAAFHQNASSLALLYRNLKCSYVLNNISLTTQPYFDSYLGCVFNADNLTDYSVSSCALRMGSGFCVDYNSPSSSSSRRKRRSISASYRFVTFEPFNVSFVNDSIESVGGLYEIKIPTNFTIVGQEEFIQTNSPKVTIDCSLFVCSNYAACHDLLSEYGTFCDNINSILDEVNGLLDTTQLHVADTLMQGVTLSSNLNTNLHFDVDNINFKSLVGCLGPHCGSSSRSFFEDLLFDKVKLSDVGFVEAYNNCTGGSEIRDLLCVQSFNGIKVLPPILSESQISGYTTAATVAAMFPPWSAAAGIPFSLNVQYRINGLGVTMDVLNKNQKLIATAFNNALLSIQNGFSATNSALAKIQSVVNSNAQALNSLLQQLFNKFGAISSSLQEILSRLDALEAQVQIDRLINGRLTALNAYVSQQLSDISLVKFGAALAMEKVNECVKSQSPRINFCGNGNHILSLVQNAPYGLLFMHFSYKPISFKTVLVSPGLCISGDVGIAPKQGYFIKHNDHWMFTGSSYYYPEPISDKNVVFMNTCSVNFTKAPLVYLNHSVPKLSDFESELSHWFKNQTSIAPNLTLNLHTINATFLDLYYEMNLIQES

B1: CC9.3 Fab (Fab, V domains shown)
VH: QVQLQESGPGLVKPSETLSLTCTVSGGSIRSDFWSWIRQFPGKGLEWIGYIYYSGSTNYNPSLESRVTISVDTSKNEFSLKLNYVTAADTAIYYCARETRWNWLDSWGQGTLVTVSS
VL: DIVMTQSPDSLAVSLGERASINCKSSQTISYISNNKNYLAWYQQKPGQPPRLLIYWASTRESGVPDRFSGGGFGTDFTLTISSLQAEDVAVYYCQQYFNTPWTFGQGTKVEIK
B2: CC9.3 IgG (antibody, V domains shown)
VH: QVQLQESGPGLVKPSETLSLTCTVSGGSIRSDFWSWIRQFPGKGLEWIGYIYYSGSTNYNPSLESRVTISVDTSKNEFSLKLNYVTAADTAIYYCARETRWNWLDSWGQGTLVTVSS
VL: DIVMTQSPDSLAVSLGERASINCKSSQTISYISNNKNYLAWYQQKPGQPPRLLIYWASTRESGVPDRFSGGGFGTDFTLTISSLQAEDVAVYYCQQYFNTPWTFGQGTKVEIK
B3: CC40.8 IgG (antibody, V domains shown)
VH: EVQLLESGGGLVQPGGSLRLSCAASGFTFSSYVMTWARQAPGKGLEWVSAISGTGYTYYADSVKGRFTVSRDNSKNTLFLQMSSLRAEDTAVYYCAITMAPVVWGQGTTVTVSS
VL: SYELTQPPSVSVSPGQTARITCSGDALPKRYAYWYQQKSGQAPILVIYEDKKRPSGIPERLSGSKSGTVATLTISGAQVEDEADYYCYSTDSSGNHAVFGGGTQLTVL
B4: CC40.8 Fab (Fab, V domains shown)
VH: EVQLLESGGGLVQPGGSLRLSCAASGFTFSSYVMTWARQAPGKGLEWVSAISGTGYTYYADSVKGRFTVSRDNSKNTLFLQMSSLRAEDTAVYYCAITMAPVVWGQGTTVTVSS
VL: SYELTQPPSVSVSPGQTARITCSGDALPKRYAYWYQQKSGQAPILVIYEDKKRPSGIPERLSGSKSGTVATLTISGAQVEDEADYYCYSTDSSGNHAVFGGGTQLTVL
B5: CC9.2 IgG (antibody, V domains shown)
VH: EVQLVESGGGLVQPGRSLRLSCVAPGFTLGGYGMHWVRQAPGKGLEWVGLISYDGSVQKYGSSVKGRFTISKDNSKNTLYLEMNSLRADDTAVYFCVKGASLGDNWGQGTLVTVSS
VL: EIVMTQSPLSLPVTLGQPASISCRSSQSLVYSDGDTYMSWFHQRPGQSPRRLIYKVSNRDFGVPDRFSGSGSGTDFTLKISRVEAEDVGVYYCMQGTHWPYTFGPGTKVEIK
B6: CC9.2 Fab (Fab, V domains shown)
VH: EVQLVESGGGLVQPGRSLRLSCVAPGFTLGGYGMHWVRQAPGKGLEWVGLISYDGSVQKYGSSVKGRFTISKDNSKNTLYLEMNSLRADDTAVYFCVKGASLGDNWGQGTLVTVSS
VL: EIVMTQSPLSLPVTLGQPASISCRSSQSLVYSDGDTYMSWFHQRPGQSPRRLIYKVSNRDFGVPDRFSGSGSGTDFTLKISRVEAEDVGVYYCMQGTHWPYTFGPGTKVEIK
B7: Fab CC9.3 (Fab, V domains shown)
VH: QVQLQESGPGLVKPSETLSLTCTVSGGSIRSDFWSWIRQFPGKGLEWIGYIYYSGSTNYNPSLESRVTISVDTSKNEFSLKLNYVTAADTAIYYCARETRWNWLDSWGQGTLVTVSS
VL: DIVMTQSPDSLAVSLGERASINCKSSQTISYISNNKNYLAWYQQKPGQPPRLLIYWASTRESGVPDRFSGGGFGTDFTLTISSLQAEDVAVYYCQQYFNTPWTFGQGTKVEIK
B8: CC9.3 (IgG) (antibody, V domains shown)
VH: QVQLQESGPGLVKPSETLSLTCTVSGGSIRSDFWSWIRQFPGKGLEWIGYIYYSGSTNYNPSLESRVTISVDTSKNEFSLKLNYVTAADTAIYYCARETRWNWLDSWGQGTLVTVSS
VL: DIVMTQSPDSLAVSLGERASINCKSSQTISYISNNKNYLAWYQQKPGQPPRLLIYWASTRESGVPDRFSGGGFGTDFTLTISSLQAEDVAVYYCQQYFNTPWTFGQGTKVEIK
B9: Fab CC40.8 (Fab, V domains shown)
VH: EVQLLESGGGLVQPGGSLRLSCAASGFTFSSYVMTWARQAPGKGLEWVSAISGTGYTYYADSVKGRFTVSRDNSKNTLFLQMSSLRAEDTAVYYCAITMAPVVWGQGTTVTVSS
VL: SYELTQPPSVSVSPGQTARITCSGDALPKRYAYWYQQKSGQAPILVIYEDKKRPSGIPERLSGSKSGTVATLTISGAQVEDEADYYCYSTDSSGNHAVFGGGTQLTVL
B10: CC40.8 (IgG) (antibody, V domains shown)
VH: EVQLLESGGGLVQPGGSLRLSCAASGFTFSSYVMTWARQAPGKGLEWVSAISGTGYTYYADSVKGRFTVSRDNSKNTLFLQMSSLRAEDTAVYYCAITMAPVVWGQGTTVTVSS
VL: SYELTQPPSVSVSPGQTARITCSGDALPKRYAYWYQQKSGQAPILVIYEDKKRPSGIPERLSGSKSGTVATLTISGAQVEDEADYYCYSTDSSGNHAVFGGGTQLTVL
B11: Fab CC9.2 (Fab, V domains shown)
VH: EVQLVESGGGLVQPGRSLRLSCVAPGFTLGGYGMHWVRQAPGKGLEWVGLISYDGSVQKYGSSVKGRFTISKDNSKNTLYLEMNSLRADDTAVYFCVKGASLGDNWGQGTLVTVSS
VL: EIVMTQSPLSLPVTLGQPASISCRSSQSLVYSDGDTYMSWFHQRPGQSPRRLIYKVSNRDFGVPDRFSGSGSGTDFTLKISRVEAEDVGVYYCMQGTHWPYTFGPGTKVEIK
B12: CC9.2 (IgG) (antibody, V domains shown)
VH: EVQLVESGGGLVQPGRSLRLSCVAPGFTLGGYGMHWVRQAPGKGLEWVGLISYDGSVQKYGSSVKGRFTISKDNSKNTLYLEMNSLRADDTAVYFCVKGASLGDNWGQGTLVTVSS
VL: EIVMTQSPLSLPVTLGQPASISCRSSQSLVYSDGDTYMSWFHQRPGQSPRRLIYKVSNRDFGVPDRFSGSGSGTDFTLKISRVEAEDVGVYYCMQGTHWPYTFGPGTKVEIK

For one assay, the target named is SARS-CoV-2 S (SARS-CoV-2, UniProt P0DTC2 1-1208). In words: BLI.
On to B1, for which binding was put at a Kd of 112 nM. With B2, the affinity, expressed as Kd, was 2 nM. B3 had a Kd of 1 nM. In turn, B4 returned a Kd of 5 nM. Same read-out and setting: the value for B5 was 16 nM; that for B6 was 1680 nM.

The target in the next assay is T1, HCoV-HKU1 recombinant soluble S …. Description: BLI.
For B7, the dissociation constant (Kd) is under 1 nM. On the same count and under the same terms, the value for B8 was under 1 nM. Still for that read-out and setting: under B9 stands under 1 nM; under B10, under 1 nM; under B11, under 1 nM. Same read-out and setting: the value for B12 was under 1 nM.
